For one experiment, the target named is plasmin (Homo sapiens, UniProt P00747). The settings on record: binding to the serine in plasmin's active site; cited from earlier work.
Another experiment has as its system preformed blood clots. Description: In-vitro circulating plasma lung model of pulmonary embolism. The settings on record: circulating human plasma. Here is the method:
The in-vitro circulating plasma lung model 200 of pulmonary embolism (as shown in FIGS. 22 and 23), consists of a 3-D printed circuit 210, designed to mimic lung vasculature, and in which preformed blood clots of known mass are placed. This “lung” is in fluid connection with a reservoir 220 of approximately 200-250 mL of human plasma, type-matched to the clots, that is recirculated with a peristaltic pump 230, passed through a heating element (not shown), then pumped through the lung itself at a physiological constant pressure. An injection port 240 allows injection of reagents, enzymes or other molecules. After lysis is initiated, the “lung” is circulated for one hour. Clots are weighed before and after completion of the experiment reweighed, to provide for percentage of clot lysis information for each treatment regime.
In this Example, pulmonary embolism was simulated using the in-vitro lung model of Example 13 and the ability of the delivery system of the present disclosure was analyzed for its ability to remove clots.
Particularly, human plasma (200-250 mL), recirculated (37° C.) and loaded with approximately 4 grams type-matched clots was injected into the delivery system. After 1 hour of circulation, the clots were removed and weighed.

Chain of plasmin (P00747 581-810 limits assumed): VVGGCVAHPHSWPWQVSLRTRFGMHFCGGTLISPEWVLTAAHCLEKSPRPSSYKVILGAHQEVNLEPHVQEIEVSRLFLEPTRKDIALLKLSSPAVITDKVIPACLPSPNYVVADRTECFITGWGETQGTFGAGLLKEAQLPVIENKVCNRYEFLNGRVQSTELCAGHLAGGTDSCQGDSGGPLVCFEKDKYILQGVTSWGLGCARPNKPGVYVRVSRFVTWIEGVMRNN
Chain of plasmin (P00747 97-580 limits assumed): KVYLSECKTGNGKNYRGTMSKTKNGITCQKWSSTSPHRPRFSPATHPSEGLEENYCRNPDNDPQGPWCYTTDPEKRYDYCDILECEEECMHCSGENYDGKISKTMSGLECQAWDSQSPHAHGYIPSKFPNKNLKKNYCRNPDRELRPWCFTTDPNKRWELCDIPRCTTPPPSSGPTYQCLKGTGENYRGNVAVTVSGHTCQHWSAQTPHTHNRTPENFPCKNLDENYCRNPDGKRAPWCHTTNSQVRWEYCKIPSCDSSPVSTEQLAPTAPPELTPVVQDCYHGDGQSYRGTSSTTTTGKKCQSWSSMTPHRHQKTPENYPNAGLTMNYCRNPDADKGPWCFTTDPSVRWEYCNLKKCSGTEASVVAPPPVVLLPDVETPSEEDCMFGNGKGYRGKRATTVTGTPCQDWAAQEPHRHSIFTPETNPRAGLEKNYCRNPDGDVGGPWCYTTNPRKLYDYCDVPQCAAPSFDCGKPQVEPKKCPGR

B1: α2-antiplasmin: Circulating serpin that rapidly inhibits plasmin (protein)
chain: NQEQVSPLTLLKLGNQEPGGQTALKSPPGVCSRDPTPEQTHRLARAMMAFTADLFSLVAQTSTCPNLILSPLSVALALSHLALGAQNHTLQRLQQVLHAGSGPCLPHLLSRLCQDLGPGAFRLAARMYLQKGFPIKEDFLEQSEQLFGAKPVSLTGKQEDDLANINQWVKEATEGKIQEFLSGLPEDTVLLLLNAIHFQGFWRNKFDPSLTQRDSFHLDEQFTVPVEMMQARTYPLRWFLLEQPEIQVAHFPFKNNMSFVVLVPTHFEWNVSQVLANLSWDTLHPPLVWERPTKVRLPKLYLKHQMDLVATLSQLGLQELFQAPDLRGISEQSLVVSGVQHQSTLELSEVGVEAAAATSIAMSRMSLSSFSVNRPFLFFIFEDTTGLPLFVGSVRNPNPSAPRELKEQQDSPGNKDFLQSLKGFPRGDKLFGPDLKLVPPMEEDYPQFGSPK
Take B1: the “rate constant of plasmin inhibition” value with plasmin was 4×10^7 M^−1Sec^−1.

B2: tPA: Tissue plasminogen activator, converts plasminogen into plasmin (protein, UniProt P00750 36-562, looked up)
Tissue-type plasminogen …: SYQVICRDEKTQMIYQQHQSWLRPVLRSNRVEYCWCNSGRAQCHSVPVKSCSEPRCFNGGTCQQALYFSDFVCQCPEGFAGKCCEIDTRATCYEDQGISYRGTWSTAESGAECTNWNSSALAQKPYSGRRPDAIRLGLGNHNYCRNPDRDSKPWCYVFKAGKYSSEFCSTPACSEGNSDCYFGNGSAYRGTHSLTESGASCLPWNSMILIGKVYTAQNPSAQALGLGKHNYCRNPDGDAKPWCHVLKNRRLTWEYCDVPSCSTCGLRQYSQPQFRIKGGLFADIASHPWQAAIFAKHRRSPGERFLCGGILISSCWILSAAHCFQERFPPHHLTVILGRTYRVVPGEEEQKFEVEKYIVHKEFDDDTYDNDIALLQLKSDSSRCAQESSVVRTVCLPPADLQLPDWTECELSGYGKHEALSPFYSERLKEAHVRLYPSSRCTSQHLLNRTVTDNMLCAGDTRSGGPQANLHDACQGDSGGPLVCLNDGRMTLVGIISWGLGCGQKDVPGVYTKVTNYLDWIRDNMRP
As to B2, the “reduction in antiplasmin (α2 AP)” value in the experiment on preformed blood clots is listed as “fully depleted”.

(Values after patent publication US20220218639A1.)
